B1: TrtA (Herbaspirillum sp. BH-1) (protein)
chain: MIRIDATPYPYQFHPRSTALVVIDMQRDFIEEGGFGSALGNDVRPLAAIVPTVAALLQLAREAGMLVVHTRESHLPDLSDCPRSKRLRGNPTLGIGDVGPMGRILVQGEPGNQILPQLAPVEGELVIDKPGKGAFYATDLHAQLQERRITHLLVAGVTTEVCVQTSMREANDRGYECLVIEDACASYFPDFHRITLEMLTAQGGIVGWRTPLAQLQAGVAAYTGENP
notes: N-terminal 6xHis tag and thrombin site kept, pET28a, E. coli BL21(DE3), codon-optimized; subunit 24 kDa, homodimer
B2: TrtA +Cleaved His-tag (Herbaspirillum sp. BH-1) (protein)
chain: MIRIDATPYPYQFHPRSTALVVIDMQRDFIEEGGFGSALGNDVRPLAAIVPTVAALLQLAREAGMLVVHTRESHLPDLSDCPRSKRLRGNPTLGIGDVGPMGRILVQGEPGNQILPQLAPVEGELVIDKPGKGAFYATDLHAQLQERRITHLLVAGVTTEVCVQTSMREANDRGYECLVIEDACASYFPDFHRITLEMLTAQGGIVGWRTPLAQLQAGVAAYTGENP
notes: N-terminal 6xHis tag cut by thrombin, E. coli BL21(DE3); homodimer ~48 kDa; crystal rows placed here, but may be the C-terminal deletion construct

Substrate: NC(=O)NC(=O)NC(N)=O
Experiment: ammonia release, Berthelot assay
Type: biochemical, Herbaspirillum sp. BH-1
Conditions: phosphate buffer
[1] = pH 6.5 (optimum), 25 °C, His-tag kept

Protein	Km [1] [µM]	kcat [1] [s⁻¹]	kcat/Km [1] [M⁻¹ s⁻¹]	Km (pH 8, 25 °C) [µM]	kcat (pH 8, 25 °C) [s⁻¹]	kcat/Km (pH 8, 25 °C) [M⁻¹ s⁻¹]
B1	21 ± 3	11 ± 1	530000 ± 100000			
B2				15 ± 3	8.8 ± 0.4	610000 ± 160000

— publication PMC7948467, “Discovery of an ultraspecific triuret hydrolase (TrtA) establishes the triuret biodegradation pathway” (The Journal of Biological Chemistry, 2020)
